Data on six molecules can be found in PMC7264223, “Tetrameric architecture of an active phenol-bound form of the AAA^+ transcriptional regulator DmpR” (Nature Communications, 2020).

The labels stand for the following.
T1: DmpR (Pseudomonas putida, UniProt Q7WSM9)
T1 construct: DmpR^WT, full-length (1–563), N-terminal 6 × His tag
T1 sequence (Q7WSM9 1-563): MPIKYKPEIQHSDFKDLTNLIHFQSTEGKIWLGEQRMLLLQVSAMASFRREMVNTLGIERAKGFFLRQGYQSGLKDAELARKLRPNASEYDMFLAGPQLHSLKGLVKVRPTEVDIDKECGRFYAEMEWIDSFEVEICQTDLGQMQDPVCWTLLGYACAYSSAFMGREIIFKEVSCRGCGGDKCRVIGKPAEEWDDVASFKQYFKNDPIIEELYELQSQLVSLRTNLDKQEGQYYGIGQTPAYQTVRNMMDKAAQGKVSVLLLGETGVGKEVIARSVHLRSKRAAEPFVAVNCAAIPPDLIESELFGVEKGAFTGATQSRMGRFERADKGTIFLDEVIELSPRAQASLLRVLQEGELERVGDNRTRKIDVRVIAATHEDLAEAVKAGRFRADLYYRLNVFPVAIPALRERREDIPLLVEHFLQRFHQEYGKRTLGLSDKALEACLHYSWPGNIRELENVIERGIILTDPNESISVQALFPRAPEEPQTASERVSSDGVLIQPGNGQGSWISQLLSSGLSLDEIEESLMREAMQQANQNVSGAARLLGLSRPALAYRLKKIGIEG

B1: σ^54_((1–119))-CPD, N-terminal residues of σ^54 (aa 1–119) fused to a C-terminal cysteine protease domain (CPD) (domain or fragment, UniProt P0A171 1-119, looked up)
chain: MKPSLVLKMGQQLTMTPQLQQAIRLLQLSTLDLQQEIQEALESNPMLERQEDGEDFDNSDPMADNAENKPAAEVQDNSFQESTVSADNLEDGEWSERIPNELPVDTAWEDIYQTSASSL
notes: also called N-terminal peptide of σ^54; σ^54 peptide; source: E. coli BL21-CodonPlus (DE3)-RIL, purified (His-Trap HP, Superdex 200); not shown: CPD (cysteine protease domain), C-terminal, kept
B2: DmpR^WT, full-length DmpR (di-methyl phenol regulator) bearing an N-terminal 6 × His tag (natural protein, Pseudomonas putida KCTC 1452, UniProt Q7WSM9 1-563, looked up)
chain: T1 sequence (Q7WSM9 1-563)
notes: DmpR (CapR) of Pseudomonas putida KCTC 1452, codons 1-563 (wild type), GenBank AAP46187.1; 66 kDa with tag; Mixture of dimers and tetramers without phenol, predominantly a tetramer with phenol; Vector pProEX HTa; also called CapR; wild type DmpR; source: E. coli BL21-CodonPlus (DE3)-RIL, purified (His-Trap HP, Superdex 200); not shown: His6, N-terminal, kept

“And” between values parts separate entries of the source, which are not always exact repeats. Equal entries are not always repeated.

The target of series [1] is T1, DmpR. In words: activation of ATPase activity (radiolabelled ATP, TLC); phenol-induced tetramerization (BN-PAGE, SEC-MALS, single-molecule photobleaching). The series is classed as biochemical. For orientation: In gel filtration, larger molecules generally elute earlier.
The target of series [2] is DmpR (Pseudomonas putida, UniProt Q7WSM9, C119S/C137S). The experiment in a line: ([…] Å) and isothermal titration calorimetry. The format is binding. (Isothermal titration calorimetry measures the heat released or taken up as one component is titrated into another.)
In series [3] the target is DmpR^ΔD, truncated DmpR derivative (aa 18–481) with C119S/C137S (Pseudomonas putida KCTC 1452). The experiment in a line: not stated; DmpR^ΔD in the presence of phenol (Supplementary Fig. 2a, b).
The target is the same in series [4]. The experiment in a line: crystal structure; DmpR^ΔD crystallised with 10 mM phenol and 3 mM AMP-PNP, sitting drop, 4 °C; 3.4 Å.
Series [5] concerns the target DmpR^ΔS, truncated DmpR lacking only the sensory domain (residues 205–563) (Pseudomonas putida KCTC 1452). The experiment in a line: native gel or EMSA; blue native PAGE of truncated DmpR proteins after incubation with ATP or ATPγS, without phenol.
Series [6] has the same target. In words: SEC-MALS; SEC combined with MALS of DmpR^ΔS.
Series [7] addresses eGFP-DmpR^WT, fusion of eGFP and N-terminally 6 × His-tagged DmpR^WT (Pseudomonas putida KCTC 1452). The experiment in a line: single-molecule fluorescence imaging (TIRF); eGFP-DmpR^WT (100 pM, with 1 mM MgCl2, 3 mM phenol, 1 mM ATPγS) held by biotinylated anti-GFP antibody; 1 nM Cy5-labelled σ^54_((1–119))-CPD added; 50 mM HEPES-NaOH pH 7.5, 300 mM NaCl, 5 mM MgCl2.
The target is the same in series [8]. In words: single-molecule fluorescence imaging (TIRF); biotinylated σ^54_((1–119))-CPD immobilised through biotin-streptavidin; eGFP-DmpR^WT added with phenol and ATPγS; bleaching steps of bound eGFP-DmpR counted.
The target is the same in series [9]. The experiment in a line: single-molecule photobleaching (TIRF); eGFP-DmpR^WT (100 pM) held by biotinylated anti-GFP antibody on streptavidin surface, PBS, without phenol; steps of eGFP bleaching counted.
For series [10] the target is unchanged. In words: single-molecule photobleaching (TIRF); eGFP-DmpR^WT (100 pM) held by biotinylated anti-GFP antibody on streptavidin surface, PBS, with 3 mM phenol; addition of 1 mM ATP changed nothing.
The target in series [11] is B2. The experiment in a line: ITC; MicroCal Auto-iTC200, 25 °C; DmpR in the cell, σ^54_((1–119))-CPD (400 µM) as injectant; with phenol and ATPγS. Conditions: both partners purified.
Series [12] concerns the molecule itself. In words: native gel or EMSA; blue native PAGE (4–16% gradient gel), 20 µM DmpR, 20 min at 25 °C, without phenol. In general terms: Mobility shift assays separate free from complexed probe on a gel.

Regarding `Oc1ccccc1` [phenol], the “activation of ATPase activity (radiolabelled ATP, TLC); phenol-induced tetrameri” value at DmpR [1] was “The DmpR^WT and DmpR^ΔD proteins exhibited ATP hydrolysis in the presence of phenol”. The Kd – broadly, the free concentration of one partner at which half of the binding sites on the other are occupied at equilibrium, for simple one-to-one binding – on DmpR [2] was about 12 µM.

With “DmpR^ΔD, truncated DmpR derivative (aa 18–481) with C119S/C137S (domain or fragment)”, the stoichiometry N in [3] and in series [4] was 4 in each case.

“DmpR^ΔS, truncated DmpR lacking only the sensory domain (residues 205–563) (domain or fragment)”: the stoichiometry N in series [5] and in series [6] was 4 each time.

Regarding “eGFP-DmpR^WT, fusion of eGFP and N-terminally 6 × His-tagged DmpR^WT (natural protein)”, the stoichiometry N in series [7] and in series [8] was 4 throughout. Besides, the percent of molecules with four-step photobleaching (tetramers) was 19% in [9] and 34% in series [10]. In [9], the percent of molecules with three-step photobleaching (trimers) amounted to 14%. Besides, the percent of molecules with two-step photobleaching (dimers) is 32% in [9] and 17% in [10].

On to B1, for which, in series [11], the Kd is about 4 µM and the stoichiometry N (commonly the number of molecules, sites or subunits per partner or assembly) worked out at 0.86 ± 0.022.

B2: the “stoichiometry N” value in series [12] was 2 and 4.
